Source: patent US20230226096A1 (Orna Therapeutics, Inc., priority 2020, published 2023)

B1: Aichivirus Chshc7 (nucleic acid, listed as Aichivirus sp.)
DNA: TTACTCCATTCAGCTTCTTCGGAACCTGTTCGGAGGAATTAAACGGGCACCCATACATCCCCATCCCCTTTCTGTAACTTAAGTATGTGTGCTTGTAATCTTGACTCCCACGGAATGGATCGATCCGCTGGAGAACAAACTGCTAGATCCACATCCTCCCTTCCCCTGGGAGGACCTTGGTCCTCCCACATCCTCCCCCCAGCCTGACGTACCACAGGCTGTGTGAAGCCCCCGCGAAAGCTGCTCACGTGGCAATTGTGGGTCCCCCCTTCATCAAGACACCAGGTCTTTCCTCCTTAAGGCTAGCCCCGATGTGTGAATTCACATTGGGCAACTAGTGGTGTCACTGTGCGCTCCCAATCTCGGCCGCGGAGTGCTGTTCCCCAAGCCAAACCCCTGGCCCTTCACTATGTGCCTGGCAAGCATATCTGAGAAGGTGTTCCGCTGTGGCTGCCAGCCTGGTAACAGGTGCCCCAGTGTGCGTAACCTTCTTCCGTCTCCGGACGGTAGTGATTGGTTAAGATTTGGTGTAAGGTTCATGTGCCAACGCCCTGTGCGGGATGAAATCTCTACTGCCCTAGGAATGCCAGGCAGGTACCCCACCCTCGGGTGGGATCTGAGCCTGGGCTAATTGTCTACGGGTAGTTTCATTTCCAATCCTTTTATGTCGGAGTC
B2: Aichivirus Rt386 (nucleic acid, listed as Aichivirus sp.)
DNA: ACTCCATTCAGCTTCTTCGGAACCTGTTCGGAGGAATTAAACGGGCACCCACTTTCCTGTCCTCTCCCCCTTTCTGCAACTCAAGTGTGTGCTCGTAATCCTGACTCCCACGGGTTGACCGCCCCGTTGGTGAACAAACAGCTAGGTCATTCCCTCCCTACCCCTGGGCGCCATTTCAGTGGCGTTCATATCCTCCCCCCAGCCTGACGTGTCACAGGCTGTGCAAAGTCCCCGCGAAAGCTGCTCACGTGGCAATTGTGGGTCCCCCCTTTGTGAAGGAACCGAGTCTTTCTCCCTTAAGGCTAGACCCCTGTGTGAACTCACAGGTGGCAACTAGTGGTTCCACTGCATGCTCCCGACCTCGGCCGCGGAGTGCTGTTCCCCAAGTCGTGACACTGACCTCCACTTATGTGCCTGGCAAGCATATCTGAGAAGATGTTCCGCTGTGGCTGCCAAACCTGGTAACAGGTGCCCCAGTGCGTGTAGTCTTCTTCCGTCTCCGGACGGTAAGTGTGTGGTAAAGATGCGGCGTAAGGTTCAAGTGCCAACGCCCTGGAAGGGATGACCCTTCTACTGCCCTAGGAATGCCGCGCAGGTACCCCAGGTTCGCCTGGGATCTGAGCGCGGGCTAATTGTCTACGGGTAGTTTCATTTCCCTCTCTTTTCACTGGCATC
B3: Porcine Kobuvirus GS2 (nucleic acid, listed as Kobuvirus sp.)
DNA: TTTGAAAAGGGGGTGGGGGGGCCTCGGCCCCCTCACCCTCTTTTCCGGTGGCCATTCGCCCGGGCCACCGTTACTCCACTCCACTCCTTCGGGACTGGTTTGGAGGAACACAACAGGGCTTCCCATCCCTGTTTACCCTTTATTCCATCATCCTTTCCCCAAGTTTACCCTATCCACACCCCACTGACTGACTCCTTTGGATTTTGACCTCAGAATGCCTATTTGACCTCCCACTCGCCTCTCCCTTTTCGGATTGCCGGTGGTGCCTGGCGGAAAAAGCACAAGTGTGTTGCAGGCTACCAAACTCCTACCCGACAAAGGTGCGTGTCCGCGTGCTGAGTAATGGGATAGGAGATGCCTACAACAGGCTCGCCCATGAGTAGAGCATGGACTGCGGTGCATGTGACTTCGGTCACCACGGGCATAGCATTGCTCACCCGTGAATCAAGTCATCGAGATTTCTCTGACCTCTGAAGTGCACTGTGGTTGCGTGGCTGGGAATCCACGCTTGACCATGTACTGCTTGATAGAGTCGCGGCTGGCCGACTCATGGGTTAAAGTCAGTTGACAAGACAC
B4: Aichivirus Goiania (nucleic acid, listed as Aichivirus sp.)
DNA: ACTCCATTCAGCTTCTTCGGAACCTGTTCGGAGGAATTAAACGGGCACCCATACACCCCCATCCCCTTTTTTGCAACTTAAGTATGTGTGCTCGTAATCTTGACTCCCACGGAATGGATCGATCCGCTGGAGAACAAACTGCTAGATCCACATCCTCCCTCCCCCCTGGGAGGACCTCGGTCCTCCCACATCCTCCCCCCAGCCTGACGTATCACAGGCTGTGTGAAGCCCCCGCGAAAGCTGCTCACGTGGCAATTGTGGGTCCCCCCTTCATCAAGACACCAGGTCTTTCCTCCTTAAGGCTAGTCCCGATGTGTGAATTCACATCGGGCAACTAGTGGTGTCACTGTGCGCTCCCAATCTCGGCCGCGGAGTGCTGTTCCCCAAGCCAAACCCCTGGCCCTTCACTATGTGCCTGGCAAGCATATCTGAGAAGGCGTTCCGCTGTGGCTGCCAGCCTGGTAACAGGTGCCCCAGTGTGCGTAACCTTCTTCCGTCCCCGGACGGTAGTGATTGGTTAAGACTTGGCGTAAGGTTCATGTGCCAACGCCCTGTGCGGGATGAAACCTCTACTGCCCTAGGAATGCCAGGCAGGTACCCCACCTTCGGGTGGGATCTGAGCCTGGGCTAATTGTCTACGGGTAGTTTCATTTCTAATTCTTTCATGTCGGAGTC
B5: Aichivirus DVI2321 (nucleic acid, listed as Aichivirus sp.)
DNA: GCTTCTTCGGAACCTGTTCGGAGGAATTAAACGGGCACCCATACACCCCCACCCCCTTTTCTGCAACTTAAGTATGTGTGCTCGTAATCTTGACTCCCACGGAATGGATCGATCCGCTGGAGAACAAACTGCTAGATCCACATCCTCCCTTCCCCTGGGAGGACCCCGGTCCTCCCACATCCTCCCCCCAGCCTGACGTATCACAGGCTGTGTGAAGTCCCCGCGAAAGCTGCTCACGTGGCAATTGTGGGTCCCCCCTTCATCAAGACACCAGGTCTTTCCTCCTTAAGGCTAGCCCCGATGTGTGAATTCACATTGGGCAACTAGTGGTGTCACTGTGCGCTCCCAATCTCGGCCGCGGAGTGCTGTTCCCCAAGCCAAACCCCTGGCCCTTCACTATGTGCCTGGCAAGCATATCTGAGAAGGTGTTCCGCTGTGGCTGCCAGCCTGGTAACAGGTGCCCCAGTGTGCGTAACCTTCTTCCGTCTCCGGACGGTAGTGATTGGTTAAGATTTGGTGTAAGGTTCATGTGCCAACGCCCTGTGCGGGATGAAACCTCTACTGCCCTAGGAATGCCAGGCAGGTACCCCACCTTCGGGTGGGATCTGAGCCTGGGCTAATTGTCTACGGGTAGTTTCATTTCCAATTCTTTTATGTCGGAGTC
B6: Aichivirus rat08 (nucleic acid, listed as Aichivirus sp.)
DNA: TACTCCATTCAGCTTCTTCGGAACCTGTTCGGAGGAATTAAACGGGCACCCACTTTCCTGTCCTCTCCCCTTTTCTGTAACTCCAAGTGTGTGCTCGTAATCTTGACTCCCGCGGATTGACCGCTCCGCTGGTGAACAAACTGCTAGGTCATCTCCTCCCCACCCTTGGGCGTCCTTCCGGGCGTCCACACCCTCCCCCCAGCCTGACGTGTCACAGGCTGTACAAAGACCCCGCGAAAGCTGCTAACGTGGCAATTGTGGGTCCCCCCTTTGTAAAGGAACCGAGTCTTTCTCCCTTAAGGCTAGACCCCTGTGTGAATTCACAGGTGGCAACTAGTGGTTCCACTGCATGCTCCCGACCTCGGCCGCGGAGTGCTGTTCCCCAAGTCGTAACACTGACCTTCACTTATGTGCCTGGCAAGCATATCTGAGAAGATGTTCCGCTGTGGCTGCCAAACCTGGTAACAGGTGCCCCAGTGTGCGTAGTCTTCTTCCGTCTTCGGACGGTAGGTGTTAGGTAAAGATGCGGCGTAAGGTTCAAGTGCCAACGCCCTGGAAGGGATGACCCTTCTACTGCCCTAGGAATGCCGCGCAGGTACCCCAGGTTCGCCTGGGATCTGAGCGCGGGCTAATTGTCTACGGGTAGTTTCATTTCCCTCTTCTTCCACTGGCATC
B7: Aichivirus ETHP4 (nucleic acid, listed as Aichivirus sp.)
DNA: TTACTCCATTCAGCTTCTTCGGAACCTGTTCGGAGGAATTAAACGGGCACCCATACACCCCCACCCCCTTTTTGCAACTTAAGTATGTGTGCTCGTGATCTTGACTCCCACGGAATGGATCGATCCGCTGGAGAACAAACTGCTAGATCCACATCCTCCCTTCCCTTGGGAGGACCTCGGTCCTCCCACATCCTCCCCCCAGCCTGACGTACCACAGGCTGTGTGAAGCCCCCGCGAAAGCCGCTCACGTGGCAATTGTGGGTCCCCCCTTCATTAAGACACCAGGTCTTTCCTCCTTAAGGCTAGTCCCGATGTGTGAATTCACATTGGGCAACTAGTGGTGTCACTGTGCGCTCCCAATCTCGGCCGCGGAGTGCTGTTCCCCAAGCCAAACCCCTGGCCCTTCACTATGTGCCTGGCAAGCATATCTGAGAAGGTGTTCCGCTGTGGCTGCCAGCCTGGTAACAGGTGCCCCAGTGTGCGTAACCTTCTTCCGTCTTCGGACGGTAGTGATTGGTTAAGATTTGGCGTAAGGTTCATGTGCCAACGCCCTGTGCGGGATGAAACCTCTACTACCCTAGGAATGCCAGGCAGGTACCCCACCCTCGGGTGGGATCTGAGCCTGGGCTAATTGTCTACGGGTAGTTTCATTTCCAATTCTTCTATGTCGGAGTC
B8: Symapivirus A (nucleic acid)
DNA: TTGGGAAATCCCCAATGCTTCTTTCAACACCGCCTGACTATGCGGTGGCGCTTCGGCTCAAACAACTAGTCACTTCCCCCTCTTAACTACTACCCAAGACTTCTAACTACCCTTACCTACTTATTTGTCTAAATTTCAAACTTTTATTCTCACGCGTCTTATAAACATCTTTTCTATTTGTTATGGTATGTTTTGTGATTTGTGTGGTGTATTTCATTTAATGGGATCTAGTGGACCGTGCCCCGGTTGGGTATCCGCTCCCTTTAAATGTTTGCAAGCACTCTTGACATTATAACCTATCATTTAGTTTACTTGTTTGTATGATCGTATTTCTGAATCGTAACATTTATGCAATTCTTTCTCGCCGAGACTTGTCTAGGAGATAAAGTTCCTGCATATTTAGTGTTACGGTTGTATAATGGAGACTTAGATAGCTTCACACTGAGGACGCTTTTTCGCTATCCTTTTGACCTGATTCAGGCCAGTGTGGAGTTAATGATTGTATGGATGGGCCCTACAATTTGTCTAAGACTTGGTGATAGCCTCGCGGCCGCTCGCCATTTATACAACTGAATAGCGGTTGAAACTCTCT
modifications: Symapivirus A
B9: Aichivirus DVI2169 (nucleic acid, listed as Aichivirus sp.)
DNA: TACTCCATTCAGCTTCTTCGGAACCTGTTCGGAGGAATTAAACGGGCACCCATACACCCCCACCCCCTTTTCTGCAACTTAAGTATGTGTGCTCGTAATCTTGACTCCCACGGAATGGATCGATCCGCTGGAGAACAAACTGCTAGATCCACATCCTCCCTTCCCCTGGGAGGACCCCGGTCCTCCCACATCCTCCCCCCAGCCTGACGTATCACAGGCTGTGTGAAGTCCCCGCGAAAGCTGCTCACGTGGCAATTGTGGGTCCCCCCTTCATCAAGACACCAGGTCTTTCCTCCTTAAGGCTAGCCCCGATGTGTGAATTCACATTGGGCAACTAGTGGTGTCACTGTGCGCTCCCAATCTCGGCCGCGGAGTGCTGTTCCCCAAGCCAAACCCCTGGCCCTTCACTATGTGCCTGGCAAGCATATCTGAGAAGGTGTTCCGCTGTGGCTGCCAGCCTGGTAACAGGTGCCCCAGTGTGCGTAACCTTCTTCCGTCTCCGGACGGTAGTGATTGGTTAAGATTTGGTGTAAGGTTCATGTGCCAACGCCCTGTGCGGGATGAAACCTCTACTGCCCTAGGAATGCCAGGCAGGTACCCCACCTTCGGGTGGGATCTGAGCCTGGGCTAATTGTCTACGGGTAGTTTCATTTCCAATTCTTTTATGTCGGAGTC

system: HEK293 cells; assay type: cell-based, human; conditions: luminescence from secreted Gluc in supernatant 24 hours after transfection of HEK293 cells; circular RNA encoding Gluc with the named IRES (UTR truncated to 675 nt)

| Molecule | Expression |
| --- | --- |
| B1 | 1.87E+07 |
| B2 | 5.71E+07 |
| B3 | 44200000 |
| B4 | 1.66E+07 |
| B5 | 6.63E+07 |
| B6 | 3.51E+07 |
| B7 | 1.78E+07 |
| B8 | 1.27E+05 |
| B9 | 2.98E+06 |
